The source of these data is article PMC6151538 (2017).

One test has as its target T1, fetuin (Bos taurus, UniProt P12763).
T1 chain: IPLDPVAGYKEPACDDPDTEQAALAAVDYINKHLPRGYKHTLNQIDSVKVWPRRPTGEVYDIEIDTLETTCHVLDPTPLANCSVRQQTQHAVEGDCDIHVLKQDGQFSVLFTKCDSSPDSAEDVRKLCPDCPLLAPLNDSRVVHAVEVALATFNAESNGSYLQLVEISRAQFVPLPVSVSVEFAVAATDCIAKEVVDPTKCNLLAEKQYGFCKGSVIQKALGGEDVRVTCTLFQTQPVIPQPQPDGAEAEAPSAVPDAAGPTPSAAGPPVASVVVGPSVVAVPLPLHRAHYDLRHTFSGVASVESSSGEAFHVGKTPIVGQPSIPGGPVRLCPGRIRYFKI
Kind of test: solid-phase assay, Scatchard analysis.

Another test has as its target T2, asialofetuin (Bos taurus, UniProt P12763).
T2 chain: T1 chain
As to the kind of experiment: solid-phase assay, Scatchard analysis.

B1: Gal-8 (NN) N-terminal CRD tandem homodimer (NN, no linker) (protein)
chain: MMLSLNNLQNIIYNPVIPFVGTIPDQLDPGTLIVIRGHVPSDADRFQVDLQNGSSMKPRADVAFHFNPRFKRAGCIVCNTLINEKWGREEITYDTPFKREKSFEIVIMVLKDKFQVAVNGKHTLLYGHRIGPEKIDTLGIYGKVNIHSIGFSFSS
modifications: engineered linker-free tandem of two Gal-8N CRDs, biotinylated; fetuin with sialylated N-glycans
With B1, in the test with fetuin, the equilibrium dissociation constant (Kd) came to 93 nM.

B2: Gal-8 (NN) N-terminal CRD tandem homodimer (NN, no linker) (protein)
chain: B1 chain
modifications: engineered linker-free tandem of two Gal-8N CRDs, biotinylated; fetuin chemically desialylated (N-glycans)
With B2, the Kd with asialofetuin stood at 148 nM.
